US20260125476A1 (INTERVET, published 2026)
Like-named read-outs stand apart in the source and are kept apart here.

T1: canine CTLA-4 (cCTLA-4) recombinant protein (canine, UniProt Q9XSI1 38-161, limits assumed)
T1 construct: also called canine Cytotoxic T-Lymphocyte-Associated protein 4; CD152
T1 chain: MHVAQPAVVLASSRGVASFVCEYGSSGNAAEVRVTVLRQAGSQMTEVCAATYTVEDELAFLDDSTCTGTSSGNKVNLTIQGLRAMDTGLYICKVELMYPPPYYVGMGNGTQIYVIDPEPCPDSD

T2: canine CTLA-4 expressed on CHO-K1 cells (canine, UniProt Q9XSI1 38-223)
T2 construct: also called CHO-cCTLA-4; CHO-K1-cCTLA-4 cells
T2 chain: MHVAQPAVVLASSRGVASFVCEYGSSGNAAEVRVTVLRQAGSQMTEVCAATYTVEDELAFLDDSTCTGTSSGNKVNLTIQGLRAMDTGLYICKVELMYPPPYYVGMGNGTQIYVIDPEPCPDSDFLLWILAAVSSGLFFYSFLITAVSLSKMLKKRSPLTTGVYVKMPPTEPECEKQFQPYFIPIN


Legend:
[1] = target: T1, canine CTLA-4 (cCTLA-4) recombinant …; assay: ELISA on coated cCTLA-4, OD450/540 ('xCTLA4 ELISA', Example 7)
[2] = target: T1, canine CTLA-4 (cCTLA-4) recombinant …; assay: blocking ELISA: cCTLA-4 coated at 200 ng/well, antibody dilutions mixed with 100 ng/well biotinylated canine CD80 (the blocked ligand), streptavidin-HRP, OD450/540 (Example 4)
Description: (§1) Coat 200 ng/well cCTLA-4 in an immunoplate and incubate the plate at 4° C. overnight. […] Wash the plate 3 times by PBS with 0.05% Tween 20 (PBST). […] Block the plate with 0.5% BSA in PBS for 45-60 min at room temperature. […] Wash the plate 3 times by PBST. […] Next mixed with the antibodies. […] Transferred the mixture into each column or row of the immunoplate, and incubated the plate for 45-60 min at room temperature. […] Washed the plate 3 times with PBST. […] Added 1:2000 diluted horseradish peroxidase conjugated streptavidin into each well of the plate, and incubated the plate for 45-60 min at room temperature. […] Washed the plate 3 times with PBST. […] Added the TMB Substrate into each well of the plate, and incubated the plate for 10 to 15 minutes at room temperature to allow for color development. […] Added 100 μL of 1.5 M phosphoric acid into each well to stop the reaction. […] Read the plate at 450 nm with 540 nm reference wavelength.

[3] = target: T2, canine CTLA-4 expressed on CHO-K1 cells; assay: flow cytometry on CHO-K1 cells stably expressing cCTLA-4, labelled anti-canine IgG, FL4-H histogram (Example 5); antibody concentration not given
[4] = target: T1, canine CTLA-4 (cCTLA-4) recombinant …; assay: ELISA: cCTLA-4 coated at 200 ng/well, three-fold antibody dilutions, HRP anti-canine IgG Fc, OD450/540 (Example 3)
[5] = target: T1, canine CTLA-4 (cCTLA-4) recombinant …; assay: blocking ELISA: cCTLA-4 coated at 200 ng/well, antibody dilutions mixed with 100 ng/well biotinylated canine CD86 (the blocked ligand), streptavidin-HRP, OD450/540 (Example 4)
Description: as §1

[6] = target: T2, canine CTLA-4 expressed on CHO-K1 cells; assay: flow cytometry on CHO-K1 cells stably expressing cCTLA-4, labelled anti-canine IgG, FL4-H histogram (Example 5); antibody concentration not given
[7] = target: T2, canine CTLA-4 expressed on CHO-K1 cells; assay: as above
Excerpt: (§2) A CHO-K1 cell line stably expressing cCTLA-4 was generated. The cells were used to test antibody binding and blocking activity in FACS flow assay. […] Grew CHO-K1-cCTLA-4 cells in the culture medium in T-75 flask. The cells are passaged when the cell confluency reaches to 90%. […] Detached the cells by Trypsin-EDTA solution, resuspended the cells in culture medium, and counted the viable cells with more than 95% viability. […] Spun down the cells, aspirated the supernatant, then resuspended the cells into FACS buffer (Thermo Fisher Scientific, Cat #BDB554656) to 1×10⁷ cells/mL. […] Added antibody into 100 μL of the cells, incubated at room temperature for 30 min with gentle shaking. […] Washed the cells by 3×250 μL of FACS buffer, and resuspended the cells into 100 μL FACS buffer. […] Stained the cells with FITC conjugated anti-canine IgG, incubated at room temperature for 30 min with gentle shaking. […] Washed the cells with 3×250 μL of FACS buffer and resuspended the cells into 500 μL FACS buffer. […] Read 10,000 cells by flow cytometry.

[8] = target: T2, canine CTLA-4 expressed on CHO-K1 cells; assay: as above
Excerpt: as §2

| Binder | EC50 (read off the curve) [1] | IC50 (read off the curve) [2] | binding result [3] | EC50 (read off the curve) [4] | IC50 (read off the curve) [5] | binding result [6] | binding result [7] | binding result [8] |
| --- | --- | --- | --- | --- | --- | --- | --- | --- |
| Caninized c39A11L3H3 (antibody, V domains shown, also called caninized 39A11 VL3/VH3) VH: EVKLVESGGDLVKPGGSLRLSCATSGFTFSDYYMSWVRQAPGKALEWMGFIRNKANGYTTEYSASLKGRFTISRDNAKNMLYLQMNSLRAEDTAVYYCVRFGLMYYFDYWGQGTTLTVSS VL: ENVLTQSPASLSLSPGEKVTITCRASSSVSSSYLHWYQQKPGQSPKLWIFSTSNLASGVPSRFSGSGSGTSYSFTISSLEPEDVAVYYCQQYSGLPLTFGGGTKLELKR | ~0.004 µg/mL | – | – | – | – | – | – | – |
| Caninized c39A11L2H3 (antibody, V domains shown, written here as L2H3; also called caninized 39A11) VH: EVKLVESGGDLVKPGGSLRLSCATSGFTFSDYYMSWVRQAPGKALEWMGFIRNKANGYTTEYSASLKGRFTISRDNAKNMLYLQMNSLRAEDTAVYYCVRFGLMYYFDYWGQGTTLTVSS VL: ENVLTQSPASLSLSQEEKVTITCRASSSVSSSYLHWYQQKPGQAPKLWIFSTSNLASGVPSRFSGSGSGTDYSFTISSLEPEDVAVYYCQQYSGLPLTFGGGTKLELKR | ~0.007 µg/mL | – | – | – | – | – | – | – |
| Caninized c12B3L3H3 (antibody, V domains shown, also called caninized 12B3 VL3/VH3) VH: EIQLVQSGGDLVKPGGSVRLSCKASGYTFTNYGMNWVKQAPGKGLQWMGWINTYTGEPTYADDFKGRFTFSLDNAKNTAYLQINSLRAEDTAVYFCARRSIYYPYWGQGTTLTVSS VL: DVLMTQTPLSLSVSPGEPASISCRSSQSIVYSNGNTYLEWYLQKPGQSPKLLIYKVSNRFSGVPDRFSGSGSGTDFTLRISRVEADDAGVYYCFQGSHVPWTFGGGTKLELKR | ~0.002 µg/mL | – | – | – | – | – | – | – |
| Caninized c12B3L2H3 (antibody, V domains shown, also called caninized 12B3) VH: EIQLVQSGGDLVKPGGSVRLSCKASGYTFTNYGMNWVKQAPGKGLQWMGWINTYTGEPTYADDFKGRFTFSLDNAKNTAYLQINSLRAEDTAVYFCARRSIYYPYWGQGTTLTVSS VL: DIVMTQTPLSLSVSPGEPASISCRSSQSIVYSNGNTYLEWYQQKPGQSPKLLIYKVSNRFSGVPDRFSGSGSGTDFTLRISRVEADDAGVYYCFQGSHVPWTFGGGTKLEIKR | ~0.002 µg/mL | – | – | – | – | – | – | – |
| Mouse-canine chimeric antibody 22A11 (antibody, V domains shown, Mouse variable regions fused to canine constant heavy chain and canine kappa; HEK 293, protein A) VH: QVQLQQPGTELVKPGASVKLSCKASGYTFTSYWMHWVKQRPGQGLEWIGNINPSNGGTRFNEKFKNKATLTEDKSSSTAYMQLSSLTSEDSAVYYCARSNYGSGWAWFAYWGQGTLVTVSA VL: DIQMNQSPSSLSASLGDTITITCHASQNINVWLSWYQQKPGNIPKLLIYKSSNLHTGVPSRFSGSGSGTGFTLTISSLQPEDIATYYCQQGQSYPWTFGGGTKLEIKR | – | ~0.2 µg/mL | binds | ~0.0007 µg/mL | ~0.3 µg/mL | – | – | – |
| Mouse-canine chimeric antibody 27G12 (antibody, V domains shown, Mouse variable regions fused to canine constant heavy chain and canine kappa; HEK 293, protein A) VH: QIQLVQSGPELKKPGETVKISCKASGYTFTTYGVSWVKQAPGKGLRWMGWINTYSGMPTYVDDFKGRFAFSLETSASTAFLQINNLKNEDTAIYFCARRGISFDYWGQGTTLTVSS VL: DVLMTQTPLSLPVSLGDHASISCKSSQSIVYINGNTYLEWYLQKPGQSPKLLIYKVSKRFSGVPDRFSGSGSGTDFTLKISRVEAEDLGVYYCFQGSHVPWTFGGGTKLEIKR | – | ~0.2 µg/mL | – | ~0.002 µg/mL | ~0.1 µg/mL | binds | – | – |
| Mouse-canine chimeric antibody 12B3 (antibody, V domains shown, expressed in HEK 293 cells, purified on protein A; also called chimera of 12B3) VH: QIQLVQSGPELKKPGETVKISCKASGYTFTNYGMNWVKQAPGKGLKWMGWINTYTGEPTYADDFKGRFAFSLETSASTAYLQINNLKNEDMATYFCARRSIYYPYWGQGTTLTVSS VL: DVLMTQTPLSLPVSLGDQASISCRSSQSIVYSNGNTYLEWYLQKPGQSPKLLIYKVSNRFSGVPDRFSGSGSGTDFTLKISRVEAEDLGVYYCFQGSHVPWTFGGGTKLEIKR | ~0.001 µg/mL | ~0.1 µg/mL | – | ~0.005 µg/mL | ~0.1 µg/mL | – | binds | – |
| Mouse-canine chimeric antibody 45A9 (antibody, V domains shown, Mouse variable regions fused to canine constant heavy chain and canine kappa; HEK 293, protein A) VH: QIQLVQSGPELKKPGETVKISCKASGYTFTNYGMNWVKQAPGKGLKWMGWINTYTGEPTYADDFKGRFAFSLETSASTAYLQINNLKNEDTATYFCARRGTYYRPWGQGTTLTVSS VL: DVLMTQTPLSLPVSLGDQASISCRSSQSIVYSHGNTYLEWYLQKPGQSPKVLIYKVSNRFSGVPDRFSGSGSGTDFTLKISRVEAEDLGVYYCFQGSHVPWTFGGGTKLEIKR | – | ~0.2 µg/mL | – | ~0.002 µg/mL | ~0.1 µg/mL | – | – | – |
| Mouse-canine chimeric antibody 110E3 (antibody, V domains shown, Mouse variable regions fused to canine constant heavy chain and canine kappa; HEK 293, protein A) VH: QIQLVQSGPELKKPGETVKISCKASGYTFTNYGMNWVKQAPGKGLKWMGWINTYTGEPTYADDFKGRVAFSLETSASTAFLQINNLKNEDTATYFCARRGVRLDYWGQGTTLTVSS VL: DVLMTQTPLSLPVSLGDQASISCRSSQSIVYISGSTYLEWYLQKPGQSPKLLIYKVSSRFSGVPDRFSGSGSGTDFTLKISRVEAEDLGVYYCFQGSHVPWTFGGGTKLEIKR | – | ~0.2 µg/mL | – | ~0.002 µg/mL | ~0.1 µg/mL | – | – | binds |
| Mouse-canine chimeric antibody 39A11 (antibody, V domains shown, Mouse variable regions fused to canine constant heavy chain and canine kappa; HEK 293, protein A; also called chimera of 39A11) VH: EVKLVESGGGLVQPGGSLSLSCATSGFTFSDYYMSWVRQSPGKALEWMGFIRNKANGYTTEYSASLKGRFTISRDNSQSILYLQMNVLRAEDSATYYCVRFGLMYYFDYWGQGTTLTVSS VL: ENVLIQSPAIMSASPGEKVTMTCRASSSVSSSYLHWYQQKSGASPKLWIFSTSNLASGVPARFSGSGSGTSYSLTINSVEAEDAATYYCQQYSGLPLTFGGGTKLEIKR | ~0.004 µg/mL | ~0.2 µg/mL | – | ~0.009 µg/mL | ~0.1 µg/mL | – | – | – |
